Data as given in US20060051359A1.

Target: 8H9 antigen (human) (UniProt Q5ZPR3)
Test: cell-based or functional assay

Chain of UniProt Q5ZPR3 (Q5ZPR3 29-534): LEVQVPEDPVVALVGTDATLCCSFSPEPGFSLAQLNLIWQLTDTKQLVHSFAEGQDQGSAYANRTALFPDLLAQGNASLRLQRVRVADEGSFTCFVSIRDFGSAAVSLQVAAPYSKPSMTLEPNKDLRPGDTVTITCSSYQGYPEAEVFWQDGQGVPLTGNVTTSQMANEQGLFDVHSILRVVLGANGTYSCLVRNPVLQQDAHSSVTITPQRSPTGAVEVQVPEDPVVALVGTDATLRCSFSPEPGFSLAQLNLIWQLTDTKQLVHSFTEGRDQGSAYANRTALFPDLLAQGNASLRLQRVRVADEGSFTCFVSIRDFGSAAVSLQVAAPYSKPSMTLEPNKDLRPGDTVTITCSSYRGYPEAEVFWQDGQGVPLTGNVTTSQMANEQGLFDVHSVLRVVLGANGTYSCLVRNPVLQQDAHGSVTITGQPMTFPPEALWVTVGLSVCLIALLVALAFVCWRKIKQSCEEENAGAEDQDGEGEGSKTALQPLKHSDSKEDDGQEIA

8H9(scFv)-PE38
IC50 of 8H9(Fv)-PE38 (ng/ml) on BT-474 cells: 20 ng/mL
IC50 of 8H9(Fv)-PE38 (ng/ml) on CRL1427 (MG63) cells: 50 ng/mL
IC50 of 8H9(Fv)-PE38 (ng/ml) on LAN-1 cells: 12.5 ng/mL
IC50 of 8H9(Fv)-PE38 (ng/ml) on MCF-7 cells: 5 ng/mL
IC50 of 8H9(Fv)-PE38 (ng/ml) on NMB-7 cells: 9 ng/mL
IC50 of 8H9(Fv)-PE38 (ng/ml) on OHS-M1 cells: 20 ng/mL
IC50 of 8H9(Fv)-PE38 (ng/ml) on SK-N-BE(2) cells: 90 ng/mL
IC50 of 8H9(Fv)-PE38 (ng/ml) on U2OS cells: 30 ng/mL
IC50 of 8H9(Fv)-PE38 (ng/ml) on ZR-75-1 cells: 35 ng/mL
